11 molecules from patent publication US20190248902A1 (published 2019) can be followed below.

The target of assay [1] is T1, human ASGR-1 (human, UniProt P07306 1-291).
T1 construct: Stably expressed on CHO-S cells (CHO-S:huASGR-1); The method text says human or mouse ASGR-1 cells were used; also called huASGR-1; hASGR-1
T1 sequence: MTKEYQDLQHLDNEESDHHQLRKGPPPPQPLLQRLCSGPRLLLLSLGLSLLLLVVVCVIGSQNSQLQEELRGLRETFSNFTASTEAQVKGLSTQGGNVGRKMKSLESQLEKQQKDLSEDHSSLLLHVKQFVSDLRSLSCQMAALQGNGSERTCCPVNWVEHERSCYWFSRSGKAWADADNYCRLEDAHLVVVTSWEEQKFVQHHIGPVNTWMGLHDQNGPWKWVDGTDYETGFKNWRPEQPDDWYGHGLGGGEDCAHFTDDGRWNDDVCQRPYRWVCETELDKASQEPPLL
Put plainly: FACS ligand blocking on CHO-S ASGR-1 cells; competitor biotinylated asialofetuin. The protocol:
(§1) All ASGR-1 antibodies that bound either human or mouse ASGR-1 stable CHO—S cells were then tested for ligand blocking using both a protein ligand and a synthetic sugar ligand. The method in brief is as follows: first, 20 ul of either CHO-Shuman or mouse ASGR-1 cells were added to wells of a 384 well plate (30 k cells/well) followed by spin and discarding the supernatant. Second, 10 ul of the antibodies (either purified from hybridoma supernatants or made recombinantly) were added in duplicate to the cells in a dilution series (200 nM top concentration, 1:2 serial dilution, 11 point curve) and were incubated for 30 min at 4 C. […] After 30 min incubation at 4C, the plate was spun and washed twice with FACS buffer+1 mM CaCl2 followed by the detection streptavidin-AF647 at 1:1000 dilution. After 30 min at 4C, the cells were spun and washed once and then 60 ul PI added at 1:1000 dilution and the plates delivered to a core flow cytometry facility. The plates were read and processed similarly to the cell binding method except the signal now represents an inhibition curve and typically decreases a function of increasing antibody concentration. IC50 nM potency and % Inhibition were reported. […] Differences in the ability of antibodies to block these two ligands could occur as a result of differences in, for example, avidity stemming from differences in the number and/or orientation of the ASGR binding terminal sugar residues of each ligand, steric hindrance between antibody and each ligand, and/or changes in the conformation of ASGR induced by antibody binding that selectively alters the binding of each ligand.

The target of assay [2] is T1, human ASGR-1. Description: FACS ligand blocking on CHO-S ASGR-1 cells; labelled ligand biotin-GalNAc-PAA (synthetic sugar). The protocol: as §1

Residue numbers refer to the chain shown, from its start.

B1: 198D2 (antibody, V domains shown)
VH: QVQLVESGGGVVQPGRSLRLSCAASGFTFRSYGMHWVRQAPGKGLEWVAVIIYDGSYKYYADSVKGRFTISRDNSKNTLYLQMNSLRAEDTAVYYCARTYSGGMDVWGQGTTVTVSS
VL: QSVLTQPPSVSAAPGQKVTISCSGSSSNIGSNYVSWYQQLPGTAPKVLIYDNNKRPSGIPDRFSGSKSGTSATLGITGLQTGDEADYYCGTWDSRLNVGVFGGGTKLTVL
With B1, the “% Inhibition” value with human ASGR-1 [1] and with human ASGR-1 [2] was 99% each time. Moreover, the IC50 with human ASGR-1 [1] came out at 22 nM; in the assay with human ASGR-1 [2] it was 55 nM.

B2: 218G4 (antibody, V domains shown)
VH: QVQLVESGGGVVQPGRSLRLSCAASGFTFSSYGLHWVRQAPGKGLEWVAVIWYDGSNKYYADSVKGRFTISRDNSKNTLYLQMNSLRVEDTAVYYCANWYYYYYGMDVWGQGTTVTVSS
VL: B1 VL with S31N, V47L, I49L, N52S, D61A, R95S, V98T, G99V
Take B2: in the assay with human ASGR-1 [1], the “% Inhibition” value stood at 99% and the IC50 was found to be 28 nM. In addition, in the assay with human ASGR-1 [2], the “% Inhibition” value came out at 99% and the half-maximal inhibitory concentration (IC50) came out at 71 nM.

B3: 194C10 (antibody, V domains shown)
VH: QVQLQQWGAGLLKPSETLSLTCAVSGGSFRYYYWSWIRQPPGKGLEWFGEINHSGSTNYNPSLKSRVTISIDTSKNQFSLKLRSVTAADTAVYYCARDYGAFDIWGQGTMVTVSS
VL: EIVLTQSPGTLSLSPGERATLSCRASPSVNSGYLAWYQQKPGQTPRLLIFGASSRATGIPDRFSASGSGADFTLTISRLEPEDFAVYFCQQYESSPWTFGQGTKVEIK
Turning to B3, the “% Inhibition” value in the assay with human ASGR-1 [1] and with human ASGR-1 [2] was 99% in each case.

B4: 193E7 (antibody, V domains shown)
VH: QVQLQQWGAGLLKPSETLSLTCAVYGGSFSGYFWTWIRQPPGKGLEWIGEINHSGSTNYNPSLKSRVTISVDTSKNQFSLKLSSVTAADTAVYYCARDYGADYWGQGTLVAVSA
VL: DIQMTQSPSSLSASVGDRVTITCRASQGIRNDLGWYQQKPGKAPKRLIYSASSLQRGVPSRFSGSGSGTEFTLTISSLQPEDFATYYCLQHKRYPLTFGGGTKVEIK
On to B4, for which the “% Inhibition” value with human ASGR-1 [1] amounted to 99%; with human ASGR-1 [2], 60%. The IC50 in the assay with human ASGR-1 [1] came out at 30 nM; with human ASGR-1 [2], 33 nM.

B5: 4A2 (antibody, V domains shown)
VH: QVQLVQSGTEVKKPGASVKVSCKASGYTFTNYDINWVRQATGQGLEWMGWMHPNSGNTGYAQKFQGRVTLTRNTSISTAYMELSSLRSEDTAVYYCASSSGWYYFDYWGQGTLVTVSS
VL: DIVMTQSPDSLAVSLGERATINCKSSQSILHSSNNNNYLAWFQQKPGQPPKLLLYWASTRESGVPDRFSGSGSGTDFTLTISSLQPEDVAVYYCQQYYNTPVTFGPGTKVGIK
B5: the “% Inhibition” value with human ASGR-1 [1] is 99%; with human ASGR-1 [2], 70%. Besides, the values for the IC50 with human ASGR-1 [1] and with human ASGR-1 [2] were 11 nM and 54 nM, respectively.

B6: 194A4 (antibody, V domains shown)
VH: QVQLVQSGTEVKKPGASLKVSCKASGYTFTVYYLNWVRQAPGQGLEWMGWINPNSGGTNYAQKFQGRVTMTRDTSISTAYMELSRLRSDDTAVYYCARGYDILTGWGQGTLVTVSS
VL: EIVLTQSPGTLSLSPGERATLSCRASRGVSNIYLAWYQQKPGQAPRLLIYGASNRATGIPDRFSGSGSGTDFTLTISRLEPEDFAVYYCQHNDYSMFTFGPGTKVDIK
On to B6, for which, in the assay with human ASGR-1 [1], the “% Inhibition” value was found to be 99% and the IC50 came to 57 nM. For the same molecule, in the assay with human ASGR-1 [2], the “% Inhibition” value came out at 60% and the midpoint of inhibition, the IC50, lay at 48 nM.

B7: 4H6 (antibody, V domains shown)
VH: QVQLVQSGAEVKKPGASVKVSCKASGYTFTDYYLHWVRQAPGQGLEWMGWIHPNSGGTNYAQKFQGRVTMTRDTSISTAYMGLSSLRSDDTAVYYCARDGTSSFDYWGQGTLVTVSS
VL: DIQMTQSPSSVSASVGDRVTITCRASQGISRWLAWYQQKPGKAPKLLIYGASSLQSGVPSRFSGSGSGTDFTLTISSLQPEDFAIYYCQQANSFPFTFGPGTKVDIK
notes: tested as antibody purified from hybridoma supernatant or made recombinantly
Take B7: the “% Inhibition” value with human ASGR-1 [1] was 85%; with human ASGR-1 [2], 20%. Besides, the results for the 50% inhibitory concentration (IC50) in the assay with human ASGR-1 [1] and with human ASGR-1 [2] were 12 nM and 8.1 nM, respectively.

B8: 194C1 (antibody, V domains shown)
VH: QVQLVESGGGVVQPGRSLRLSCAASGFTFSSYGMHWVRQAPGKGLEWVAVIWYDGSNEHYADSVKGRFTISRDNSKNTLYLQMNSLRAEDTAVYYCARNRGVGYYGLDVWGQGTTVTVSS
VL: DIQMTQSPSSLSASVGDRVTITCRASQGISNYLAWFQQKPGKAPKSLIYAASSLQSGVPSKFSGSGSGTDFTLTISSLQPEDFATYYCLHYLTYPLTFGGGTKVEIK
As for B8, in the assay with human ASGR-1 [1], the “% Inhibition” value worked out at 99% and the 50% inhibitory concentration (IC50) stood at 34 nM. For the same molecule, in the assay with human ASGR-1 [2], the “% Inhibition” value amounted to 89% and half-maximal inhibition (IC50) was put at 72 nM.

B9: 197G3 (antibody, V domains shown)
VH: B8 VH with A23V, Y32H, E58K, H59N, N99D, R100P, G101S, Y105D, L107M
VL: DIQMTQSPSSLSASVGDRVTITCRASQGIGNHLAWFQQKPGKAPKSLIYAASSLQSGVPSKFSGSRSGTDFSLTISSLQPEDFATYYCQQYSNYPVTFGPGTKVDIK
Turning to B9, in the assay with human ASGR-1 [1], the “% Inhibition” value stood at 90% and the concentration for half-maximal inhibition (IC50) came out at 29 nM. In the assay with human ASGR-1 [2], the “% Inhibition” value was found to be 74% and the IC50 came to 15 nM.

B10: 202A3 (antibody, V domains shown)
VH: QVQLEQSGAEVKKPGASVKVSCKASGYTFTSYDINWVRQATGQGLEWLGWMNPKRGNTGYAQKFQGRVTMTRNTSISTAHMELSSLRSEDTAVYYCARGRYSREDYYYYYDMDVWGQGTTVTVSS
VL: DIQMSQSPSSLSASVGDRVTITCRASQGIRNDLGWYQQKPGKAPKRLICAASRLQSGVPSRFSGSGSGTEFTLTISSLQPEDFAIYYCLQHHDYPFTFGPGTKVDIK
Turning to B10, in the assay with human ASGR-1 [1], the “% Inhibition” value was found to be 98% and the IC50 was determined as 16 nM. In addition, in the assay with human ASGR-1 [2], the “% Inhibition” value stood at 96% and the half-inhibitory concentration (IC50) stood at 32 nM.

B11: 4B1 (antibody, V domains shown)
VH: QVQLQESGPGLVKPSETLSLTCSVSGDSISSYSWSWIRQPAGKGLEWIGRIYTSGSTNYIPSLKSRITMSVDTSKKQFSLKLSSVTAADTAVYYCARDLKSSGCLFFDYWGQGTLVTVSS
VL: DIQMTQSPSSLSASVGDRVTITCRASHTIRTYLNWYQQKPGKAPKLLIYAASSLQSGVPSRINGSGSGTDFTLTITNLQPEDFATYYCQQSYNISFTFGPGTKVDIK
On to B11, for which, in the assay with human ASGR-1 [1], the “% Inhibition” value amounted to 75% and the half-inhibitory concentration (IC50) came out at 64 nM. Further, in the assay with human ASGR-1 [2], the “% Inhibition” value worked out at 36% and 42 nM corresponded to half-maximal inhibition (IC50).

By % Inhibition is commonly meant the change of the read-out against control, counted positive when it falls. High values mean strong suppression, low ones little suppression. What is called IC50 is the concentration at which inhibition is half-maximal. The low end stands for inhibition by little substance, the high end for a need for much substance.
